The target in experiment [1] is T1, soluble IGF-1R (recombinant human IGF-1R extracellular domain, R&D Systems Cat. # 391-GR/CF) (human, UniProt P08069 31-935).
T1 construct: extracellular domain; Bought protein; coated on plates (phage ELISA, TRF) or Eu-labelled (TR-FRET); also called sIGF-1R; rhIGF-1R
Description: phage ELISA. On the technique in general: An ELISA detects its analyte on a solid surface through an enzyme-linked reagent.

The target in experiment [2] is T2, soluble human insulin receptor-immunoglobulin heavy chain chimera (human, UniProt P06213 28-956, limits assumed).
T2 construct: extracellular domain; also called sIR-Fc; IR (prepared according to Bass et al., 1996); not shown: immunoglobulin heavy chain constant domains (Bass et al., 1996)
As to the kind of experiment: phage ELISA.

Experiment [3] concerns the target T3, Soluble IGF-1R (R&D Systems, Cat. # 391-GR/CF) (human, UniProt P08069 31-935).
T3 construct: extracellular domain; the precursor is cleaved into alpha and beta subunits; also called sIGF-1R
Description: phage ELISA, receptor coated on plate; A405 over non-fat milk.

Experiment [4] addresses T4, Insulin receptor prepared according to Bass et al., 1996 (soluble IR-immunoglobulin chimera) (human, UniProt P06213 28-956).
T4 construct: extracellular domain; also called sIR-Fc; soluble IR (Bass construct); not shown: immunoglobulin constant domains replacing the transmembrane and intracellular domains
Described as above.

Experiment [5] concerns the target T5, human insulin receptor (HIR) (human, UniProt P06213-2 28-1370, limits assumed).
T5 construct: Also used for the WGA-purified recombinant human insulin receptor of the kinase assay
As to the kind of experiment: 125I-insulin competition on purified HIR.

This note sets out measurements from patent publication US20040023887A1 (published 2004).

No end group written: not given here.

By Kd is commonly meant the concentration at which binding is half-saturated.

With RAGSSDFHEDFYEWFVRQVSLSLKGK (on phage) [H2CA-2-B9-IGFR], the ratio over background in experiment [1] is 7 ratio; in experiment [2], 1.7 ratio.

In the case of RGKTAAVIVGRPADPFYHKLSELLQGG (on phage) [B6Hα-3-E8-IR], the ratio over background in experiment [1] stood at 5.3 ratio; in experiment [2], 1.1 ratio.

On to QAVQPGFHEEFYDWFVRQVSTGVGGG (on phage) [H2CA-4-H4-IGFR], for which the ratio over background in experiment [1] was found to be 4.1 ratio; in experiment [2], 1 ratio.

On to GIISQSCPESFYDWFAGQVSDPWWCW (on phage) [H2CA-4-G9-IGFR], for which the ratio over background in experiment [1] is 9.5 ratio; in experiment [2], 0.6 ratio.

For SRAKVEAEMPDSGDPFYHKLSELLASG (on phage) [B6Hα-1-A3-IR], the ratio over background in experiment [1] was found to be 2.6 ratio; in experiment [2], 0.8 ratio.

For the molecule QSPVGSSHEDFYDWFFRQVAQSGAHQ (on phage) [H2CA-3-D6-IGFR], the values for the ratio over background in experiment [1] and in experiment [2] were 9 ratio and 2.2 ratio, respectively.

Turning to SSIGGGFHENFYDWFSRQLSQSPPLK (on phage) [H2CA-4-F7-IGFR], the ratio over background in experiment [1] is 3.2 ratio; in experiment [2] it was 0.8 ratio.

B1: B6Hα-1-B3-IR (peptide)
peptide: GCITAENGAGDPFYHKLSELGGCS
notes: library tags and phage coat protein not included
As to B1, the “ratio over background (IGF-1R)” value in experiment [3] was determined as 3.2 fold over background. Besides, in experiment [4], the “ratio over background (IR)” value is 1.1 fold over background.

Regarding GCAVVEEAERSRGDPFYHKLSELIQGC (on phage) [B6Hα-3-E7-IR], the ratio over background in experiment [1] is 5.6 ratio; in experiment [2], 1.3 ratio.

Consider TLDGGSFEEQFYDWFVRQLSYRTNPD (on phage) [H2CA-4-G11-IGFR], for which the ratio over background in experiment [1] was found to be 9.5 ratio; in experiment [2], 2.5 ratio.

Consider PPLASDLDVQFYGWFVQQVSPPGRGG (on phage) [H2CA-2-B3-IGFR], for which the ratio over background in experiment [1] was 3.8 ratio; in experiment [2] it was 1 ratio.

Regarding GFREGNFYEWFQAQVT (on phage) [E4Dα-4-H2-IR], the ratio over background worked out at 33.9 ratio in experiment [1] and 8.2 ratio in experiment [2].

B2: 40F-4-B1-IGFR (peptide)
peptide: GLDHSDAVGVHLGFAWPAQARGRWEAGGLEDTWAGYDWL
notes: tags and coat protein not included; Formula 10 (Group 6) clone
In the case of B2, in experiment [3], the “ratio over background (IGF-1R)” value turned out to be 3 fold over background. The “ratio over background (IR)” value in experiment [4] came to 0.2 fold over background.

B3: 20E2Bβ-3-C7-IR (peptide)
peptide: QSGSGDFYDWLSRLIRGNGDG
notes: as for B1
Consider B3, for which, in experiment [3], the “ratio over background (IGF-1R)” value turned out to be 3.1 fold over background. For the same molecule, the “ratio over background (IR)” value in experiment [4] is 1.5 fold over background.

B4: B6Hα-3-F7-IR (peptide)
peptide: SRVAATKEKRPSDDPFYHKLSELLQGS
notes: as for B1
As for B4, in experiment [3], the “ratio over background (IGF-1R)” value turned out to be 3.1 fold over background. Besides, in experiment [4], the “ratio over background (IR)” value amounted to 1 fold over background.

Take VNQSGSIHENFYDWFERQVSHQRGVR (on phage) [H2CA-4-F10-IGFR]: the ratio over background is 5.7 ratio in experiment [1] and 1 ratio in experiment [2].

B5: B6Hα-2-D8-IR (peptide)
peptide: SSETAKMVTGTRDDPFYHKLSELVQGS
notes: as for B1
With B5, the “ratio over background (IGF-1R)” value in experiment [3] stood at 3 fold over background. The “ratio over background (IR)” value in experiment [4] was determined as 1 fold over background.

B6: B6Hα-3-F1-IR (peptide)
peptide: CSMAAVAEAGDDDDPFYHKLSELCQGS
notes: as for B1
With B6, the “ratio over background (IGF-1R)” value in experiment [3] came out at 2.4 fold over background. Moreover, the “ratio over background (IR)” value in experiment [4] came to 1.3 fold over background.

B7: B6Hα-3-E6-IR (peptide)
peptide: CGAKMTGTPNDPFYHKLSELLQRG
notes: as for B1
On to B7, for which the “ratio over background (IGF-1R)” value in experiment [3] came out at 2.3 fold over background. Also, in experiment [4], the “ratio over background (IR)” value worked out at 1.2 fold over background.

In the case of RFDPFYSYFVNLLGASA (on phage) [NNRPγ-4-A7-IR], the ratio over background in experiment [1] was found to be 6.3 ratio; in experiment [2], 1.3 ratio.

B8: 20E2A-4-G11-IGFR (peptide)
peptide: MNVFVSFYDAIDQLVCQRIGC
notes: as for B1
With B8, the “ratio over background (IGF-1R)” value in experiment [3] amounted to 3.3 fold over background. Besides, the “ratio over background (IR)” value in experiment [4] was 1.3 fold over background.

For the molecule GCVVEWQKWHGASDPFYHKLSELGGCS (on phage) [B6Hα-3-F10-IR], the ratio over background in experiment [1] turned out to be 8.8 ratio; in experiment [2], 1.9 ratio.

B9: R20β-4-E8-IR (peptide)
peptide: VRGFQGGTVWPGYEWLRNAA
notes: as for B2
Consider B9, for which the “ratio over background (IGF-1R)” value in experiment [3] was determined as 34.9 fold over background. In addition, in experiment [4], the “ratio over background (IR)” value is 3.6 fold over background.

Take GCEVIVEEGDSADPFYHKLSELCQGS (on phage) [B6Hα-2-D1-IR]: the values for the ratio over background in experiment [1] and in experiment [2] were 5.4 ratio and 1.3 ratio, respectively.

With LRRQAPVEENFYDWFVRQVSGDRVGG (on phage) [H2CA-3-D7-IGFR], the ratio over background in experiment [1] was determined as 3 ratio; in experiment [2], 0.8 ratio.

With FYVQQWGHENFYDWFDRQVSQSGGAG (on phage) [H2CA-4-F1-IGFR], the ratio over background in experiment [1] stood at 3.5 ratio; in experiment [2], 0.9 ratio.

As to GGTKAVAKVGTRDDPFYHKLSELLQGS (on phage) [B6Hα-4-G8-IR], the ratio over background in experiment [1] stood at 6.1 ratio; in experiment [2] it was 1.7 ratio.

For MMVVDGFYDALHQLVVAQSLG (on phage) [20E2A-3-D10-IGFR], the results for the ratio over background in experiment [1] and in experiment [2] were 6.9 ratio and 1.8 ratio, respectively.

Consider NYRRQVFNGNFYDWFDRQVFSLVTPG (on phage) [H2CA-3-D8-IGFR], for which the figures for the ratio over background in experiment [1] and in experiment [2] were 7.2 ratio and 1.8 ratio, respectively.

B10: 20E2A-3-A3-IGFR (peptide)
peptide: GHYFGSFYDAIDQLVAGMLPG
notes: as for B1
For B10, in experiment [3], the “ratio over background (IGF-1R)” value worked out at 3 fold over background. For the same molecule, in experiment [4], the “ratio over background (IR)” value turned out to be 1.5 fold over background.

For the molecule CCLLCRFQQNFYDWFVCQGISRLRPL (on phage) [H2CA-2-B4-IGFR], the ratio over background came out at 4.1 ratio in experiment [1] and 1.1 ratio in experiment [2].

Consider APDPSDFQEIFYDWFVRQVSRMPGGG (on phage) [H2CA-1-A3-IGFR], for which the ratio over background in experiment [1] stood at 3.8 ratio; in experiment [2] it was 0.8 ratio.

As to LSVALSFYDALGQLVAGEGRW (on phage) [20E2A-3-A12-IGFR], the ratio over background in experiment [1] is 4.3 ratio; in experiment [2] it was 1.1 ratio.

B11: 20E2A-3-A4-IGFR (peptide)
peptide: AGSVTSFYDAMEQLVATGTSA
notes: as for B1
With B11, in experiment [3], the “ratio over background (IGF-1R)” value was determined as 2.5 fold over background.

Turning to SSCDGAGHESFYEWFVRQVSGCRSV (on phage) [H2CA-3-C6-IGFR], the ratio over background in experiment [1] was 5.6 ratio; in experiment [2] it was 1.2 ratio.

Regarding AETSVQVGWIRLQSVWPGEHWNTVDPFYHKLSELLRGSGA (on phage) [B6L-4-D7-IR], the ratio over background worked out at 4.8 ratio in experiment [1] and 1.4 ratio in experiment [2].

For the molecule RCGRELYHSTFYDWFDRQVAGRTCPS (on phage) [H2CA-1-A7-IGFR], the results for the ratio over background in experiment [1] and in experiment [2] were 2.2 ratio and 0.6 ratio, respectively.

B12: B6Hα-3-E5-IR (peptide)
peptide: RCGDEEGWQENRRDDPFYHKLSELFGGC
notes: as for B1
As for B12, the “ratio over background (IGF-1R)” value in experiment [3] turned out to be 2.9 fold over background. Also, the “ratio over background (IR)” value in experiment [4] stood at 1 fold over background.

B13: 40F-4-D1-IGFR (peptide)
peptide: LSCLAYSRHGIWRPSTDLGLGRSVGEGSVSTRWRGYDWFE
notes: as for B2
As to B13, in experiment [3], the “ratio over background (IGF-1R)” value was determined as 4.6 fold over background. The “ratio over background (IR)” value in experiment [4] came to 0.3 fold over background.

Turning to GAPVDQLHEDFYDWFVRQVSQAATG (on phage) [H2CA-2-B2-IGFR], the figures for the ratio over background in experiment [1] and in experiment [2] were 3.4 ratio and 1 ratio, respectively.

B14: S423 (peptide)
peptide 1: ESFYDWFERQLGK
peptide 2: ACAWPTYWNCG
modifications: not fully specified (bridges); cysteine pairing not given here; also: C-terminus of chain 2 linked to Lys13 of chain 1, bond at chain A 13 to a chain's C-terminus
On to B14, for which binding in experiment [5] was put at a Kd of 0.062 µM.
